Patent US20120322725A1 (INDIANA UNIVERSITY RESEARCH AND TECHNOLOGY, published 2012)
Like-named read-outs stand apart in the source and are kept apart here. Each block holds one binder with its values, some of them ahead of it. Bridge positions count the residues as written; N and C are the ends. Square brackets hold non-standard residues; d marks the D form. Ends that are not written are not given here. PLA = 3-phenyllactic acid (2-hydroxy-3-phenylpropanoic acid); Abu(4-SO3H) = N[C@@H](CCS(=O)(=O)O)C(=O)O; PhLac = O=C(O)[C@@H](O)Cc1ccccc1

Columns and labels:
glucagon receptor [1] = target: T1, glucagon receptor (UniProt P47871 26-477, limits assumed); assay: cell-based or functional assay
T1 sequence (P47871 26-477 limits assumed): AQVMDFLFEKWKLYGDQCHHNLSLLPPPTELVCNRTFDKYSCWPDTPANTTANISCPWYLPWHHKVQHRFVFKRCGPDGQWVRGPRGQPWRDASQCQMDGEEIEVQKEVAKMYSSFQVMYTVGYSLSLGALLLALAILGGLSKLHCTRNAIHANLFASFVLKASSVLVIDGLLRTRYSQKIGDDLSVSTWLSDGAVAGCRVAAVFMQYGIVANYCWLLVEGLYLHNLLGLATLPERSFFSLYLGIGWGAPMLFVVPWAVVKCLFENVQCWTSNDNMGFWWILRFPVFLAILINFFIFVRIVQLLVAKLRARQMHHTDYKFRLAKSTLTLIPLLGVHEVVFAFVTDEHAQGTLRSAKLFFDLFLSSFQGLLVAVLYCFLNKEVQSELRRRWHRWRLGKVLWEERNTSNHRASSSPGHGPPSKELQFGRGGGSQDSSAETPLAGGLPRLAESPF

GLP-1 receptor [2] = target: T2, GLP-1 receptor (UniProt P43220 24-463, limits assumed); assay: cell-based or functional assay
glucagon receptor [3] = target: T1, glucagon receptor; assay: cell-based or functional assay; remark: listed apart in the source
glucagon receptor [4] = target: T1, glucagon receptor; assay: cell-based or functional assay; remark: listed apart in the source
glucagon receptor [5] = target: T1, glucagon receptor; assay: column IC50(nM) beside the cAMP columns of Table H; taken as receptor binding
glucagon receptor [6] = target: T1, glucagon receptor; assay: receptor binding, method not described
glucagon receptor [7] = target: T1, glucagon receptor; assay: cell-based or functional assay; remark: listed apart in the source
GLP-1 receptor [8] = target: T2, GLP-1 receptor; assay: cell-based or functional assay; remark: listed apart in the source
glucagon receptor [9] = target: T1, glucagon receptor; assay: cell-based or functional assay; remark: listed apart in the source
glucagon receptor [10] = target: T1, glucagon receptor; assay: receptor binding, method not described; remark: listed apart in the source
glucagon receptor [11] = target: T1, glucagon receptor; assay: receptor binding, method not described; remark: listed apart in the source
glucagon receptor [12] = target: T1, glucagon receptor; assay: receptor binding (named so for the same values in Table I), method not described
glucagon receptor [13] = target: T1, glucagon receptor; assay: cell-based or functional assay; remark: listed apart in the source
glucagon receptor [14] = target: T1, glucagon receptor; assay: receptor binding, method not described; remark: listed apart in the source
glucagon receptor [15] = target: T1, glucagon receptor; assay: cell-based or functional assay; remark: listed apart in the source

B1: [hCys^9(SO3H)]Glucagon(aa6-29)-NH2 (peptide)
peptide: FTS[Abu(4-SO3H)]YSKYLDSRRAQDFVQWLMNT-NH2
notes: also called [hCys(SO3)9]Glucagon(aa6-29)-NH2
cAMP IC50 (glucagon receptor [4]): 0.133 µM | cAMP pA2 (glucagon receptor [4]): 7.16 | IC50 (glucagon receptor [5]): 0.0591 µM | IC50 (glucagon receptor [6]): 0.0591 µM | cAMP IC50 (glucagon receptor [7]): 0.133 µM | cAMP pA2 (glucagon receptor [7]): 7.16

B2: [E9, E16K20(lactam), D28]G(4~29) (peptide)
peptide: GTFTSEYSKYLDERRAKDFVQWLMDT
HELM: PEPTIDE1{G.T.F.T.S.E.Y.S.K.Y.L.D.E.R.R.A.K.D.F.V.Q.W.L.M.D.T.[am]}$PEPTIDE1,PEPTIDE1,13:R3-17:R3$$$V2.0; N-terminus assumed
SMILES: CSCC[C@H](NC(=O)[C@H](CC(C)C)NC(=O)[C@H](Cc1c[nH]c2ccccc12)NC(=O)[C@H](CCC(N)=O)NC(=O)[C@@H](NC(=O)[C@H](Cc1ccccc1)NC(=O)[C@H](CC(=O)O)NC(=O)[C@@H]1CCCCNC(=O)CC[C@H](NC(=O)[C@H](CC(=O)O)NC(=O)[C@H](CC(C)C)NC(=O)[C@H](Cc2ccc(O)cc2)NC(=O)[C@H](CCCCN)NC(=O)[C@H](CO)NC(=O)[C@H](Cc2ccc(O)cc2)NC(=O)[C@H](CCC(=O)O)NC(=O)[C@H](CO)NC(=O)[C@@H](NC(=O)[C@H](Cc2ccccc2)NC(=O)[C@@H](NC(=O)CN)[C@@H](C)O)[C@@H](C)O)C(=O)N[C@@H](CCCNC(=N)N)C(=O)N[C@@H](CCCNC(=N)N)C(=O)N[C@@H](C)C(=O)N1)C(C)C)C(=O)N[C@@H](CC(=O)O)C(=O)N[C@H](C(N)=O)[C@@H](C)O
Glucagon IC50 (glucagon receptor [3]): 0.01 to 0.03 µM | GLP-1 EC50 (GLP-1 receptor [8]): 0.151 µM

Binder: {Ac-PLA}-TSEYSKYLDSRRAQDFVQWLMNT-NH2 [[Ac-PLA^6, E^9]Glucagon(aa6-29)-NH2]
IC50(nM) (cAMP, inhibit 0.8 mM Glucagon) (glucagon receptor [9]): 38.1 nM

B4: [PLA6, D9, K12E16(Lactam), D28]G(6-29) (peptide)
peptide: TSDYSKYLDERRAQDFVQWLMDT
modifications: not fully specified; PLA at position 6, N-terminal to the letters given; lactam between K12 and E16
Glucagon IC50 (glucagon receptor [1]): 0.013 µM | GLP-1 EC50 (GLP-1 receptor [2]): 0.021 µM | Glucagon IC50 (glucagon receptor [3]): 0.063 µM | GLP-1 EC50 (GLP-1 receptor [8]): 0.177 µM

Binder: GTFTSEYSKYLDSRRAQDFVQWLMNT-NH2 (also called peptide no) [[Glu^9]Glucagon(aa4-29)-NH2]
cAMP pA2 (glucagon receptor [13]): 7.05 | cAMP Inhibition IC50 (glucagon receptor [15]): 0.128 µM

Further lines, results first:

Glucagon IC50 (glucagon receptor [1]): 0.006 µM | GLP-1 EC50 (GLP-1 receptor [2]): 0.004 µM | Glucagon IC50 (glucagon receptor [3]): 0.01 to 0.03 µM
Binder: {PLA}-TSDYSKYLDERRAKDFVQWLMDT-NH2 (lactam 10-14) [[PLA6, D9, E16K20(lactam), D28]G(6-29)]

IC50(nM) (cAMP, inhibit 0.8 mM Glucagon) (glucagon receptor [9]): 328 nM
Binder: {PLA}-FTSEYSKYLDSRRAQDFVQWLMNT-NH2 [[PLA^5, E^9]Glucagon(aa5-29)-NH2]

GLP-1 EC50 (GLP-1 receptor [8]): 0.00028 µM
Binder: HSQGTFTSDYARYLDARRAREFIKWLVRGRG [ANK2 (Bayer peptide)]

IC50(nM) (cAMP, inhibit 0.8 mM Glucagon) (glucagon receptor [9]): 64.8 nM | IC50 (glucagon receptor [10]): 0.0123 µM | IC50 (glucagon receptor [11]): 0.0123 µM
Binder: [PhLac]TSEYSKYLDSRRAQDFVQWLMNT-NH2 [[PLA6, E9]Glucagon(aa6-29)-NH2]

IC50 (glucagon receptor [12]): 0.0364 µM | cAMP (I/A)50 (glucagon receptor [13]): 486 | cAMP pA2 (glucagon receptor [13]): 7.16 | cAMP IC50 (glucagon receptor [4]): 0.0972 µM | cAMP pA2 (glucagon receptor [4]): 7.16 | IC50 (glucagon receptor [14]): 0.036 µM | IC50 (glucagon receptor [6]): 0.0364 µM | cAMP Inhibition IC50 (glucagon receptor [15]): 0.097 µM
B3: [Glu^9]Glucagon(aa6-29)-NH2 (peptide)
peptide: FTSEYSKYLDSRRAQDFVQWLMNT-NH2
notes: also called [E^9]Glucagon(aa6-29)-NH2; peptide no
